Results published in the supplement of paper PMC9170038.

Tested on: K4 kissing-loop RNA reporter
Test: apparent KD of K4 kissing-loop reporter; higher = weaker reporter binding
Settings: Eterna round: R107
Protocol: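 RNA-MaP round R107: designed RNA switches with theophylline, tryptophan, arginine or FMN aptamers are transcribed on-chip within common flanks. They are titrated with a labelled K4 kissing-loop RNA reporter in RNA-MaP buffer (100 mM Tris pH 7.5, 80 mM KCl, 4 mM MgCl2), without ligand or with the indicated ligand. Median apparent KD per design.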

[1] = input ligand: theophylline 20 uM
[2] = input ligand: tryptophan 2.4 mM
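Note: bound reporter read as fluorescence of individual clusters on recovered sequencing chips by microscopy, with normalized cluster intensities fitted with a binding model.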

| Sequence | apparent KD of K4 kissing-loop reporter (input ligand: FMN 200 uM) [nM] | apparent KD of K4 kissing-loop reporter (input ligand: arginine 13.2 mM) [nM] | apparent KD of K4 kissing-loop reporter (input ligand: none) [nM] | apparent KD of K4 kissing-loop reporter [1] [nM] | apparent KD of K4 kissing-loop reporter [2] [nM] |
| --- | --- | --- | --- | --- | --- |
| AAAUGUAUCUGAAGGAGCGUGAAAUAAUAUUAGACAUAAUAGCCCAGUGAUGUUGGGUUAUCACAGGUAGGUCGCAGAUGUAUAA [Same State Arginie B GF 26] | 112 | 108 | 105 | 125 | 106 |
| AGUGAUGUAUGGCGGUUGGUCACUUAGGAUCAGGAUAUAUAAACAAAUAGAAGGGAUGGCGGAGUGAUGUUCCGCCGGCCGCCAU [FMN A Exl V2] | 173 | 130 | 177 | 191 | 170 |
| CAAUGAGUUUAAGAUGAUAUCAUCACAGAAGGAGCGAGUGAUAACUCAGGUAGGUCGCUGAAUUUGUCGAGUGAUGUUCGAUAGA [whbob_SS_Arginine_A_sa120] | 191 | 153 | 186 | 166 | 174 |
| GUGCGGCUAGUGAUGUUGGUUGCGUGGGAAGGAGCGCAGAAACAUGCAGGUAGGUCGCCCACAUCUCGGAUAAGAGACUAAUUCA [Letiisve] | 606 | 182 | 168 | 220 | 307 |
| UCUUUUGUAUAUGAUACCAGCAGUGAGAGACAGGAAGUAUAGUGAUGUUAUAUGAGAGAAUGCCCUUGGCAGCGUGUGCGGUUGG [SSTheophylB.V] | 95 | 174 | 322 | 268 | 137 |
| AAAGCUCUAUAGAGCAAGAGGUCAACUGAUACCAGAGGCUAUAGCCUCCCUUGGCAGCGGAACGAGUGAUGUUCGAGACCUCAAA [AK6.1 SS Theophylline A] | 1410 | 1120 | 1610 | 939 | 1130 |
| CAUACGCAUGGAGGAUAUGAGAUUUCUCAUAUUAUUGUUUAUUCUCAGUGAUGUUGGGAUUUAAACUCAGAAGGCCAUGUGUAUG [Ex FMN B 9] | 273 | 124 | 138 | 137 | 132 |
| AUUUAAUGUAUAGAUUAUAUACAUUAUUCAGAGGAUAUGCAUUGAAGCAGAAGGCUGGAUGUAGUGAUGUUGCAAUUUUAAUUUA [JR_SSFMNA_Sub007] | 205 | 247 | 218 | 299 | 143 |
| CGCGGCCGGCCGGAUACCAGUGACCCGCUGGCAACCGCGGGCCCAGAGUGAUGUUCGGGACACCCUUGGCAGCCGCCUGGGCGUG [#2 Same State - Theophylline B Attempt #4 (HarryS)] | 521 | 309 | 483 | 694 | 396 |
| UCGAAGGAUGGAAGGAGCGCUCGUCAGUCCUGCGAGUGAUGUUCGUGGGUAAAUAGUCGCGAGCAGGUAGGUCGCCAUCUUGAGA [Lageso] | 110 | 96.9 | 101 | 152 | 118 |
| GAUUGUGAUGGAAACAUCGCAAUCUCUGAAGGAGCGCGUGAAAACGCAGGUAGGUCGCAGGACGACUUUGACAGUGAUGUUGUCG [Ex Arginine A K4 4] | 186 | 223 | 201 | 216 | 180 |
| CCUAUCUCAUACGAUACCAGUCGUCGAGUGAUGUUCGAUUAAAUAAAUUUGCCAAAUAACGACCCUUGGCAGCGUAUGGGAUAGG [Ex Theophylline B K4 16] | 273 | 295 | 318 | 334 | 326 |
| AAACAUUGGUGCGAUACCAGCUGAUCGGAAACGAUCUUGCUGGAGUGAUGUUCCAAGUAAAGCCCUUGGCAGCGCACCGAUGAAA [MAT - Same State Theophlline B - Mod of Eli - D21] | 135 | 31.7 | 91.5 | 72 | 75.7 |
| CGCUGGGCGAGUGAUGUUCGCUCACGUGAUACCAGUGCCAUCCAACACCCUUGGCAGCACGCGGGCAGUGAUGUUGUCCUUGUAU [Exclusion Theophylline A GF6] | 130 | 117 | 127 | 109 | 119 |
| ACGCGCGCGAGUGAUGUUCGGAGCGGCUGGCAGGAUAUGUAGCAAUGCAGAAGGGUCGUGGCGGCGCGGCCGUAAGGCGGCGCCG [#2 Exclusion - FMN A Attempt #14 (HarryS)] | 173 | 310 | 404 | 535 | 237 |
| AAGAGCUAGGCGGCCGCCACUAGAUGUGAACACAUACAAGCCAGUGAUGUUGGUAUGAUGGACGGUAGGACCGGGCCUAGCUGAA [Exclusion - Tryptophan B (Freestyle 12)] | 290 | 464 | 394 | 381 | 294 |
| AGACUACUGAUAGGAUAUAACAUACUACUCGUAUACCAAAGGUAUACGAGAACCCUUCUAGUGAUGUUAGAAGGGUCGGUAGUCA [Omei KL FMN B Exc B v7] | 82.6 | 68 | 70.9 | 70.1 | 72.8 |
| UAAUGCAUGACGGCCGCCACUAGUACUGGAGUGAUGUUGUGGUACGGCGGCAAUAUAGGGUGGACUAGGACCGGGUCAUGCAUAU [KL-XTryp-B12 #analogue] | 403 | 336 | 346 | 380 | 432 |
| UUAUCUAUAUUCGAUACCAGUACCCUUUGUGUUGAUCCUUUUAUCAGUGAUGUUGAUGUGUACCCUUGGCAGCGGGUAUGGGUUU [KL-XTheo-B16] | 384 | 370 | 425 | 556 | 279 |
| AUCUUGCAUUCGGCCGCCACUAUCGUGCAGUGAUGUUGCGCGAGUGACGCGUCCCGCAGUGCAGGUAGGACCGGGAAUGAUACCC [Erlazaar] | 128 | 119 | 123 | 112 | 125 |
| AAAAUAAUCCAGUGAUGUUGGUAUCCAGAUACCAGCGACGAAAGUCGCCCUUGGCAGCUGUGGACGUACAAAAUAAGUACGUCCU [#OpenEnded 9 #StaticStem #K4Early] | 502 | 386 | 535 | 842 | 630 |
